Measured values as given in PMC8429728 (Nature Communications, 2021).

Molecular target: T1, M1-linked tetra-ubiquitin (UniProt P0CG48 1-76; P0CG48 1-76; P0CG48 1-76; P0CG48 1-76, M1-linked)
T1 construct: ubiquitin, first of four head-to-tail repeats; ubiquitin, second repeat; ubiquitin, third repeat; ubiquitin, fourth repeat; also called M1-linked chains
Experiment: pull-down; GST fusion held on glutathione agarose, incubated with 0.5 μg of an individual tetra-ubiquitin chain, 2 h at 4 °C; 150 mM NaCl, 50 mM Tris pH 7.5, 0.1% IGEPAL, 5 mM DTT, 0.25 mg/mL BSA; immunoblotted for GST and ubiquitin
Conditions: both partners purified

B1: GST-TNK1-UBA (domain or fragment, human, UniProt Q13470 585-666, looked up)
chain: LLSDPELQRKIMEVELSVHGVTHQECQTALGATGGDVVSAIRNLKVDQLFHLSSRSRADCWRILEHYQWDLSAASRYVLARP
notes: TNK1, human, amino acid 585 to 666 (UBA domain), in pGEX-6P-1; also called GST-tagged recombinant TNK1 UBA; source: E. coli BL21; held on glutathione agarose and washed (pull-down); lysate loaded on anti-GST biosensors (BLI); not shown: GST, N-terminal, kept
binding result: binds
